Results from the supplement of paper PMC9170038.

Test system: MS2 coat protein
Experiment: apparent KD of MS2 coat protein; higher = weaker reporter binding
Conditions: Eterna round: R107; input ligand: theophylline 2 mM
Outline: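 Apparent KD stands for the median, per design, of fits to normalised cluster binding curves. The curves came from titrating on-chip-transcribed RNA switches on Illumina sequencing clusters with SNAP-549-labelled MS2 coat protein, twofold from 0.7 or 1.5 nM to 3 µM. Buffer was 100 mM Tris-HCl pH 7.5, 80 mM KCl, 4 mM MgCl2, without or with constant ligand.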

Sequence	apparent KD of MS2 coat protein [nM]
UGCUACAUGAGGAUCACCCAUGUGGGUGAUACCAGCAUUCGUUAAUGCCCUUGGCAGCGCAGCCGAACCAUUCAUUCGGCAGAUC [Laxeor]	382
AGCCUCAUACAUGAGGAACACCCAUGUGAUACCAGUCAGGAAACUGACCCUUGGCAGCGCAUGAGGAUCACCCAUGCGCGAGGCA [Omei Theo A Exc A v3]	237
UGACAUUGCUCAGAUACCAGACGUGAGGAUCACCCACGUGCCAACAAGUACAAAAUAAAUGUCCCUUGGCAGCUGAGCAAUGUCU [TheoBX 26 #MS2Left #AlternativeMS2 #Theo22]	14.1
UGAUGGAACGGAAGGAGCGUGUAAGAACAAGAACAUGAGGAUCACCCAUGUAUUAAUUUAACACAGGUAGGUCGCCGAGAUAUUG [11.E]	17.3
UCGGGCAGAGCGGCCGCCACUGUAAGGCGUGCGGAUGACGGAACAUGAGGAUCACCCAUGUUGUUUAGGACCGGGCUUGCGGCGA [nynullin]	11.2
AGAUGAGUCACGGCCGCCACUCUUAUCAGGAUCACCCAUGGUUAACAUGAGGAUCACCCAUGUCUGAGGACCGGGUGAUGAGCAU [XTryp B #2]	25.3
AUAACAUGAGGAUCACCCAUGUAAGCUGAAGGAGCGCUGGAAACAGCAGGUAGGUCGCAGCAUGUUUCCACAUGGGUAGGAAACU [(M1)-(M2)-(Arg1)-(Arg2)-(A)'-(M)'-(A)''_Design8]	123
CCUGCGUUUCUUCUUUCGCAGGAGGAUGAUACCAGUAGGGAAACCUACCCUUGGCAGCAUGGGACAUGAGGAUCACCCAUGUGGA [SSThA NP+V+V2 #1]	130
CGGCCCUCACACGAGGAUCACCCGUGUGAUACCAGCCUGGAAACAGGCCCUUGGCAGCACAAGGUCAUCAAAGAUGACCAAGCCG [TheoAX 22 #SwitchBubble]	31.8
CGCAACCCACAUGAGGAUCACCCAUGUGAAGGAGCGGCGAAUAAGCCAGGUAGGUCGCGCAUGAAUAAAUCAUGUAGGAAGCGAA [XArg-A 7 V1&2]	28
GGCUCCAGCCGAAGGAGCGCUAGAAGGUGACAUGAGGAUCACCCAUGUGUGUGAUGUGGCUAGCAGGUAGGUCGCGGAGGAGCUU [Exclusion - Arginine B (Freestyle 19)]	90.6
CAAGAACAGCCAGAUCUUGGCAGCUGAGAAGGAGCGCGGGAAGCCGCAGGUAGGUCGCUCAGGAAUACAUGAGGAUCACCCAUGU [Beoror]	20

Same assay, conditions: Eterna round: R107; input ligand: tryptophan 2.4 mM

Sequence	apparent KD of MS2 coat protein [nM]
UGACAUUGCUCAGAUACCAGACAUGAGCAUCAGCCAUGUGCCAACAAGUACAAAAUAAAAGUCCCUUGGCAGCUGAGCAAUGUCU [TheoBX 21 #MS2Left #AlternativeMS2 #Theo2]	10.6
UUAUUUAUAAUUGAUACCAGUUUAAUGGCCGCAAAUCCUGACAUGAGGAUCACCCAUGUAAGCCCUUGGCAGCGGUUAUGGGUUU [XTheo B #25]	22.1
AUUAAAAGUUGUGAUACCAGACGAACAUGAGGAUCACCCAUGUAACUUUUAGGUGUUGUAGUCCCUUGGCAGCACUAUGUAGUUA [JR_SSTheophyB_Sub012]	40.1
GGAAUUAAGACUGAUACCAGUCAAGAUAAUCAUAAGAAUAAACAUGAGGAUCACCCAUGUGACCCUUGGCAGCAGACUAAUACCG [Same State Theophylline B GF 26]	39.2
UGUAUGGACUGAAGGAGCGGGUUGAUAACCUGAGGAUCACCCAGGUAAAAGGCGAAAGCCACCCAGGUAGGUCGCAGUCCAUACU	20
UAAAGUAGGUCCAAUAAAACUACAUGUGAAGGAGCGCGCGAAAGCGCAGGUAGGUCGCACAUGAGGAUCACCCAUGUCCUACAAU [MAT - Exclusion Arginine A - Mod of Eli - D17]	43
GGACUAACCUGAAGGAGCGACACGCACAAAGUGCAAAUUCCUCCACACGAGGAUCACCCGUGUCAGGUAGGUCGCAGGUUAGUCG [ArgBX 28]	29.1
AAAAUAAAUAAAACACGUAACAUGAAGGAUACCAGCCAGAAAACUGGCCCUUGGCAGCCUCUACAUGAGGAUCACCCAUGUCGUG [Mat - Same State Theophlline A - Mod of Eli - D16]	293
CUCGAGUUAUGAGAUACCAGACUAUAGUUUACAUGAGGAUCACCCAUGUUAUGGGUGGUGGUCCCUUGGCAGCUCAUAUGUUUAA [#08 Exclusion-TheophyllineB]	85.1
ACAUGAGGAUCACCCAUGUAUGAUGUUCCUCGAGGACCGGUACGGCCGCCACUCGAACGAGUGGCGCGCGAGCGCGCGCUCGCGC [aVa]	15.2
AGCGACAUGCGUGAUACCAGCUACAUGAGGAUCACCCAUGUCAGUAGGAAACUACUGUGUAGCCCUUGGCAGCACAGUGCAUGUC [Exclusion - Theophylline B (Freestyle 26)]	17.7
UUUUCAGGGUCGGCCGCCACUGGUAUGGCGAGUCCUCGAACAAACAUGAGGAUCACCCAUGUGAACAGGACCGGGACAGCAUGGG [Exclusion Tryptophan B GF 21]	286
UUUUAACAUGAGGAUCACCCAUGUAAUGAUACCAGAGACGAAAGUCUCCCUUGGCAGCAUAUAUCAUUACUCAUAGGAAACUAUG [Theophylline A 6]	13.6
GAUAUAUAACGAAGGAGCGGCCCUUGAUCCUCAUGAGACAUGAGGAUCACCCAUGUCUCGGGCCAGGUAGGUCGCGUUAUAUAUC [Astros-omei-mod]	24.4
ACACGGGCAUGAGGAUCACCCAUGUAAUAACGAGGACCGGUACGGCCGCCACUCGUGCACCGUGACCUGUACGAAAAGUGCAGGA	9.98
UGCUACAUGAGGAUCACCCAUGUGGGUGAUACCAGCAUUCGUUAAUGCCCUUGGCAGCGCAGCCGAACCAUUCAUUCGGCAGAUC [Laxeor]	328
AGCCUCAUACAUGAGGAACACCCAUGUGAUACCAGUCAGGAAACUGACCCUUGGCAGCGCAUGAGGAUCACCCAUGCGCGAGGCA [Omei Theo A Exc A v3]	47.7
UGACAUUGCUCAGAUACCAGACGUGAGGAUCACCCACGUGCCAACAAGUACAAAAUAAAUGUCCCUUGGCAGCUGAGCAAUGUCU [TheoBX 26 #MS2Left #AlternativeMS2 #Theo22]	10.9
UGAUGGAACGGAAGGAGCGUGUAAGAACAAGAACAUGAGGAUCACCCAUGUAUUAAUUUAACACAGGUAGGUCGCCGAGAUAUUG [11.E]	13.5
UCGGGCAGAGCGGCCGCCACUGUAAGGCGUGCGGAUGACGGAACAUGAGGAUCACCCAUGUUGUUUAGGACCGGGCUUGCGGCGA [nynullin]	16.7
AUAACAUGAGGAUCACCCAUGUAAGCUGAAGGAGCGCUGGAAACAGCAGGUAGGUCGCAGCAUGUUUCCACAUGGGUAGGAAACU [(M1)-(M2)-(Arg1)-(Arg2)-(A)'-(M)'-(A)''_Design8]	49.5
CCUGCGUUUCUUCUUUCGCAGGAGGAUGAUACCAGUAGGGAAACCUACCCUUGGCAGCAUGGGACAUGAGGAUCACCCAUGUGGA [SSThA NP+V+V2 #1]	430
CGGCCCUCACACGAGGAUCACCCGUGUGAUACCAGCCUGGAAACAGGCCCUUGGCAGCACAAGGUCAUCAAAGAUGACCAAGCCG [TheoAX 22 #SwitchBubble]	12.6
GAUGAUAUUGCAGAUACCAGACACAUGAGGAUCACCCAUGUCGUUGGGUCGCUGGGUCGUGUCCCUUGGCAGCUGCGAUAUCAUC [#04 Exclusion-TheophyllineB]	31
CGCAACCCACAUGAGGAUCACCCAUGUGAAGGAGCGGCGAAUAAGCCAGGUAGGUCGCGCAUGAAUAAAUCAUGUAGGAAGCGAA [XArg-A 7 V1&2]	22.5
GGCUCCAGCCGAAGGAGCGCUAGAAGGUGACAUGAGGAUCACCCAUGUGUGUGAUGUGGCUAGCAGGUAGGUCGCGGAGGAGCUU [Exclusion - Arginine B (Freestyle 19)]	71.1
CAAGAACAGCCAGAUCUUGGCAGCUGAGAAGGAGCGCGGGAAGCCGCAGGUAGGUCGCUCAGGAAUACAUGAGGAUCACCCAUGU [Beoror]	17.2
